The results in this text go back to publication PMC7425898, “Human Golgi phosphoprotein 3 is an effector of RAB1A and RAB1B” (PLoS ONE, 2020).

One may read the stoichiometry N as the number of molecules, sites or subunits per partner or assembly.

Experiment [1] has as its target T1, Recombinant, untagged GOLPH3 (human, UniProt Q9H4A6 1-298).
T1 construct: Golgi phosphoprotein 3 (GOLPH3), human, full-length cDNA NM_022130, cloned into pGST-Parallel-1; removal of GST by TEV is surmised from the vector and from the method told for RAB1; also called purified recombinant GOLPH3; not shown: GST, N-terminal, cleaved
Kind of experiment: pull-down; GST-RAB1A/B (50 μM) or GST on glutathione-Sepharose 4B, increasing concentrations of recombinant GOLPH3; 20 mM HEPES, 100 mM NaCl, 5 mM MgCl2, 1 mM DTT, 1% CHAPS, pH 7.2; 3 h, 4°C; Coomassie, densitometry, non-linear fit assuming 1:1; apparent KD. The note with it: both partners purified.

For experiment [2], the target named is T1, Recombinant, untagged GOLPH3. Kind of experiment: ITC; GOLPH3 (100 μM) in the chamber, RAB1A or RAB1B (1 mM) injected; 25°C; 50 mM Tris-HCl, 150 mM NaCl, 1 mM DTT, pH 7.4; one-site model; no nucleotide exchange. Conditions: both partners purified.
Another experiment concerns the target T2, GST-RAB1B-Q67L (human, UniProt Q9H0U4 1-201, Q67L).
T2 construct: RAB1B, human, full length, in pGST-Parallel-1, GTP-locked variant; also called GST-tagged, GTP-locked active state variant of RAB1B; source: E. coli B834(DE3), purified on glutathione-Sepharose 4B
Kind of experiment: pull-down; GST or GST-tagged RAB1A/B variants on glutathione-Sepharose 4B, soluble protein extract of H4 cells (0.5 mg) with protease and phosphatase inhibitors; binding buffer-1; 3 h, 4°C; immunoblot for GOLPH3, densitometry. Conditions: one partner purified. A general note: Immunoblotting shows a protein as a band on a membrane.

The next experiment concerns the target T3, GST-RAB1A-Q70L (human, UniProt P62820 1-205, Q70L).
T3 construct: RAB1A, human, full length, in pGST-Parallel-1, GTP-locked variant; also called GST-tagged, GTP-locked active state variant of RAB1A; source: E. coli B834(DE3), purified on glutathione-Sepharose 4B
Described as above. Conditions: one partner purified.

Another experiment has as its target T4, GFP-RAB1A-Q70L (human, UniProt P62820 1-205, Q70L).
T4 construct: RAB1A, human, pEGFP construct, GTP-locked variant; also called GFP-tagged GTP-locked active state variant of RAB1A; source: H4 cells, transfected (pEGFP construct), in soluble protein extract
Kind of experiment: co-IP; GFP-Trap agarose beads with extracts (0.2 mg) of H4 cells expressing GFP or GFP-RAB1A/B variants, supplemented with extract (0.3 mg) of non-transfected cells; 25 mM Tris-HCl, 50 mM NaCl, 0.1% NP-40, pH 7.5; 1.5-4 h, 4°C; immunoblot for GOLPH3, densitometry. Conditions: partners not purified.

A further experiment has as its target T5, GFP-RAB1B-Q67L (human, UniProt Q9H0U4 1-201, Q67L).
T5 construct: RAB1B, human, pEGFP construct, GTP-locked variant; also called GFP-tagged GTP-locked active state variant of RAB1B; source: H4 cells, transfected (pEGFP construct), in soluble protein extract
The experiment is described as above. Conditions: partners not purified.

T5 sequence (Q9H0U4 whole entry Q67L): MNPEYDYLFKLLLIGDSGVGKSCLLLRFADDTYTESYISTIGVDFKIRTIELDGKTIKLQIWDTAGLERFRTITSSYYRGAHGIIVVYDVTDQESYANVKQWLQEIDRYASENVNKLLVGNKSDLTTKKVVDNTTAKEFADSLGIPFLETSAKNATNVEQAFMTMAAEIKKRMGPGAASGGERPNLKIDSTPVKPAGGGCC
T2 sequence (Q9H0U4 whole entry Q67L): as above
T3 sequence (P62820 whole entry Q70L): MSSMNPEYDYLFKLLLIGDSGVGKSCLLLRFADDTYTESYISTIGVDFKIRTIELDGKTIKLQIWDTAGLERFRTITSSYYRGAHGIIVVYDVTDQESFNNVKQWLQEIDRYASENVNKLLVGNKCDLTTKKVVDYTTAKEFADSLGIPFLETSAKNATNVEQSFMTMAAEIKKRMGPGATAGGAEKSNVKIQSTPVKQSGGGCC
T4 sequence (P62820 whole entry Q70L): as above

B1: GST-RAB1B (wild type) (natural protein)
chain: not shown
notes: RAB1B, human, full length, cloned into pGST-Parallel-1; also called GST-tagged RAB1B; GST-RAB1A/B; source: E. coli B834(DE3), purified on glutathione-Sepharose 4B
On to B1, for which the Kd in experiment [1] turned out to be 64.2 ± 3.7 µM.

B2: Purified, recombinant RAB1A (natural protein)
chain: not shown
notes: RAB1A, human, full length, from pGST-Parallel-1, GST removed by TEV protease; source: E. coli B834(DE3), purified (glutathione-Sepharose 4B, TEV cleavage, Ni-NTA, Superdex 200)
As to B2, in experiment [2], the Kd is 61.9 µM and the “stoichiometry N” value was 1.

B3: GST-RAB1A (wild type) (natural protein)
chain: not shown
notes: RAB1A, human, full length, cloned into pGST-Parallel-1; also called GST-tagged RAB1A; GST-RAB1A/B; source: E. coli B834(DE3), purified on glutathione-Sepharose 4B
Consider B3, for which the Kd in experiment [1] came out at 54.7 ± 4.2 µM.

B4: Endogenous GOLPH3 (natural protein, human (endogenous in H4), UniProt Q9H4A6 1-298, looked up)
chain: MTSLTQRSSGLVQRRTEASRNAADKERAAGGGAGSSEDDAQSRRDEQDDDDKGDSKETRLTLMEEVLLLGLKDREGYTSFWNDCISSGLRGCMLIELALRGRLQLEACGMRRKSLLTRKVICKSDAPTGDVLLDEALKHVKETQPPETVQNWIELLSGETWNPLKLHYQLRNVRERLAKNLVEKGVLTTEKQNFLLFDMTTHPLTNNNIKQRLIKKVQEAVLDKWVNDPHRMDRRLLALIYLAHASDVLENAFAPLLDEQYDLATKRVRQLLDLDPEVECLKANTNEVLWAVVAAFTK
notes: Golgi phosphoprotein 3 (GOLPH3), endogenous in human H4 neuroglioma cells; source: endogenous, H4 human neuroglioma cells, soluble protein extract
As for B4, the “fold of GOLPH3 pulled down against the wild type variant” value was roughly 1.1 times with GST-RAB1B-Q67L, roughly 1.2 times with GST-RAB1A-Q70L, roughly 1.2 times with GFP-RAB1A-Q70L and roughly 1.1 times in the experiment with GFP-RAB1B-Q67L.

B5: Purified, recombinant RAB1B (natural protein)
chain: not shown
notes: RAB1B, human, full length, from pGST-Parallel-1, GST removed by TEV protease; source: E. coli B834(DE3), purified (glutathione-Sepharose 4B, TEV cleavage, Ni-NTA, Superdex 200)
Turning to B5, in experiment [2], the Kd came out at 78.4 µM and the “stoichiometry N” value is 1.
